The source of these data is article PMC8655031, “Loss of peptidase D binding restores the tumor suppressor functions of oncogenic p53 mutants” (Communications Biology, 2021).

For data set [1], the target named is T1, recombinant human p53, N-terminal His tagged (human, UniProt P04637 1-393).
T1 construct: human p53 from pET15b-His-human p53; also called His-human p53; source: E. coli BL21-AI, purified (Ni-NTA)
The data set is described as follows: cross-linking; PEPD (801 nM) and p53 or p53^R175H (114 nM), alone or together, in PBS pH 7.4 for 15 min at RT, then 2 mM BS3 for 30 min at RT; WB on 5% SDS-PAGE. To be noted: both partners purified.

Data set [2] deals with the molecule itself. The data set is described as above.

B1: recombinant human PEPD (peptidase D), C-terminal His tagged (enzyme, UniProt P12955 1-493, looked up)
chain: MAAATGPSFWLGNETLKVPLALFALNRQRLCERLRKNPAVQAGSIVVLQGGEETQRYCTDTGVLFRQESFFHWAFGVTEPGCYGVIDVDTGKSTLFVPRLPASHATWMGKIHSKEHFKEKYAVDDVQYVDEIASVLTSQKPSVLLTLRGVNTDSGSVCREASFDGISKFEVNNTILHPEIVECRVFKTDMELEVLRYTNKISSEAHREVMKAVKVGMKEYELESLFEHYCYSRGGMRHSSYTCICGSGENSAVLHYGHAGAPNDRTIQNGDMCLFDMGGEYYCFASDITCSFPANGKFTADQKAVYEAVLRSSRAVMGAMKPGVWWPDMHRLADRIHLEELAHMGILSGSVDAMVQAHLGAVFMPHGLGHFLGIDVHDVGGYPEGVERIDEPGLRSLRTARHLQPGMVLTVEPGIYFIDHLLDEALADPARASFLNREVLQRFRGFGGVRIEEDVVVTDSGIELLTCVPRTVEEIEACMAGCDKAFTPFSGPK
notes: human peptidase D (PEPD, prolidase), from pBAD/TOPO-human PEPD-His; the discussion speaks of PEPD as 493 aa; also called prolidase; PEPD-His; source: E. coli One Shot TOP10, purified (Ni-NTA)
As to B1, the “stoichiometry N” value is 1 PEPD dimer per p53 tetramer in data set [1] and 2 in data set [2].

Broadly, the stoichiometry N is the number of molecules, sites or subunits per partner or assembly.
